Data taken from paper PMC9714796 (2022).

Target: T1, TGF-βRII-Fc (muTGFbRII-mFc) (mouse (from the printed name …, UniProt Q62312 24-166))
T1 chain: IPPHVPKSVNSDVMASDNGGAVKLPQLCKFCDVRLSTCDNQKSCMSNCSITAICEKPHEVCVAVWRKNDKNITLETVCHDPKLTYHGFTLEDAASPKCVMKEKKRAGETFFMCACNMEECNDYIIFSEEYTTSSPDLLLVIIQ
Test: SPR

B1: Transforming growth factor-β3 (TGF-β3) (ligand)
chain: ALDTNYCFRNLEENCCVRPLYIDFRQDLGWKWVHEPKGYYANFCSGPCPYLRSADTTHSTVLGLYNTLNPEASASPCCVPQDLEPLTILYYVGRTPKVEQLSNMVVKSCKCS
Question: B1 was tested. Which koff did it give?
Answer: Its koff is 0.0013 s⁻¹.
